Here are results for 1 molecule from article PMC5992430, “C-Reactive Protein (CRP) and Leptin Receptor in Obesity: Binding of Monomeric CRP to Leptin Receptor” (Frontiers in Immunology, 2018).

In this test the target is T1, Soluble recombinant human leptin receptor (human, UniProt P48357 22-839).
T1 construct: leptin receptor (Ob R), human, soluble recombinant form; PDB 3V6O (CRH2 domain) was used only for docking; also called recombinant leptin receptor; Ob R; source: bought: Thermo Fischer, USA (synthesized in Escherichia coli)
T1 sequence (looked up): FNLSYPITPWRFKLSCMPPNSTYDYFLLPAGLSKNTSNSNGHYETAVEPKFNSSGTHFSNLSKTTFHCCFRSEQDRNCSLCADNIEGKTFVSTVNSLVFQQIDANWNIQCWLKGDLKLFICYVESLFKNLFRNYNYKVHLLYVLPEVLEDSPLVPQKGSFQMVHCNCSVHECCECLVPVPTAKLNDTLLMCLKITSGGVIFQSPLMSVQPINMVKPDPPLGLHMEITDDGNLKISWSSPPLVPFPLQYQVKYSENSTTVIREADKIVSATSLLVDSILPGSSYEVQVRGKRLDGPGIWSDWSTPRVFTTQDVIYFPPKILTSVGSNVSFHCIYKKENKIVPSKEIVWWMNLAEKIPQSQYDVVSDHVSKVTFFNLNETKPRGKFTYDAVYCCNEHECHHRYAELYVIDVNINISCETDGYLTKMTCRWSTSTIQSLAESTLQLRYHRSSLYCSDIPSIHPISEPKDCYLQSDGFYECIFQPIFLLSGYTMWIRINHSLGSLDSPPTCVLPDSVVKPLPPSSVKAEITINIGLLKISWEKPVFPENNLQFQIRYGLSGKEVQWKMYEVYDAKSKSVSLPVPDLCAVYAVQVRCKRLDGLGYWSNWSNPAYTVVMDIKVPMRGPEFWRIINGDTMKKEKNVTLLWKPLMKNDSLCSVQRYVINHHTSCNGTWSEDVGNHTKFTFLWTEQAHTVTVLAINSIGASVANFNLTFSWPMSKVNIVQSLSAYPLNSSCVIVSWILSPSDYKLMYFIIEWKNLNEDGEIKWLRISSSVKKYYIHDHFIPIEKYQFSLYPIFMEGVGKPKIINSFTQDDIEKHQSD
Kind of test: ELISA; solid phase binding assay; CRP forms or control proteins coated on a 96-well plate at 4°C overnight in Tris/HCl 0.05 M pH 7.4 (different concentrations, or 0.6 µg/ml for Figure 5B); blocked with 0.5% gelatin; leptin receptor 100 ng/ml in 50 µl PBS added for 1 h at RT; detected with anti-Ob R antibody and HRP anti-rabbit IgG. The settings on record: both partners purified. On the technique in general: ELISA stands for enzyme-linked immunosorbent assay.

B1: Monomeric CRP prepared from human serum CRP (natural protein, UniProt P02741 19-224, looked up)
chain: QTDMSRKAFVFPKESDTSYVSLKAPLTKPLKAFTVCLHFYTELSSTRGYSIFSYATKRQDNEILIFWSKDIGYSFTVGGSEILFEVPEVTVAPVHICTSWESASGIVEFWVDGKPRVRKSLKKGYTVGAEASIILGQEQDSFGGNFEGSQSLVGDIGNVNMWDFVLSPDEINTIYLGGPFSPNVLNWRALKYEVQGEVFTKPQLWP
notes: C-reactive protein, human, from serum; protomer of 206 amino acid residues as printed in the introduction; dissociated to the monomer with urea/EDTA; Same chain as native CRP, dissociated to monomers; also called s-mCRP; human mCRP; source: bought: Thermo Fischer, USA (human CRP); made monomeric with 8 M urea/10 mM EDTA at 37°C for 2 h
A word on the Kd: it is the free concentration of one partner at which half of the binding sites on the other are occupied at equilibrium, for simple one-to-one binding. Consider B1, for which the Kd is 10.2 nM.
